From article PMC9427763, “Structure and dynamics of Toll immunoreceptor activation in the mosquito Aedes aegypti” (Nature Communications, 2022)
Values joined by “and” are separate entries in the source; they are usually repeats but may differ in a detail not shown here. Identical values can stand only once.

T1: Drosophila melanogaster Toll (Toll1) ectodomain (Drosophila melanogaster, UniProt P08953 28-807)
T1 construct: Toll receptor 1, Drosophila melanogaster, purified ectodomain; also called DmToll1; DmToll
T1 sequence (looked up): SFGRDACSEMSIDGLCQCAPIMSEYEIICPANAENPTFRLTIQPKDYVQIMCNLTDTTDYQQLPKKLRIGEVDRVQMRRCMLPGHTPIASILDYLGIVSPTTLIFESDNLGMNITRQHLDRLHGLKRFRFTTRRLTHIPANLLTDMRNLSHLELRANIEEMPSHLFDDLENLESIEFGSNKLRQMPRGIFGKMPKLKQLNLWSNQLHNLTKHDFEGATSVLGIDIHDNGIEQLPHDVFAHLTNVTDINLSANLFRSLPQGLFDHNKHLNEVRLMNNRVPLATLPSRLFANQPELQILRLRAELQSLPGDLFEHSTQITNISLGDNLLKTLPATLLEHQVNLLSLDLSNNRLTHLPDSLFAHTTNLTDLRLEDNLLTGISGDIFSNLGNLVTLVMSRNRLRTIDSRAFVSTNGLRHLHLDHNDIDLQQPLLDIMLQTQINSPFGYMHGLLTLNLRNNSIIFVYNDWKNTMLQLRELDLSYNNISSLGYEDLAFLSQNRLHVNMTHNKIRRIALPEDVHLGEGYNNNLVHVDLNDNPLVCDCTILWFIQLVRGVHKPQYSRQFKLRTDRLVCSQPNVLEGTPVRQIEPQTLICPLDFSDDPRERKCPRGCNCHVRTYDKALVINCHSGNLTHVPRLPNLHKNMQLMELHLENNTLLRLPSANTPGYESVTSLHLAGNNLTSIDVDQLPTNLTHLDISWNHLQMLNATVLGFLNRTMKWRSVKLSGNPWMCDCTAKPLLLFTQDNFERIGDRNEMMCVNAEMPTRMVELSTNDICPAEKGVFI

T2: Aedes aegypti Spaetzle1C cystine-knot domain (residues 219-320), disulphide-linked dimer (Aedes aegypti, intermolecular disulphide bonds between Cys-94 and between Cys-59 of the two chains)
T2 chain: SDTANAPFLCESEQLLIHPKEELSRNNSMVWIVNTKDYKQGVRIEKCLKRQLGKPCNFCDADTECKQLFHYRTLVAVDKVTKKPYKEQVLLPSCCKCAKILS


How the values were obtained:
[1] = target: T1, Drosophila melanogaster Toll (Toll1) …; test: SPR; Biacore T200, CM5 chip; Spz1A, Spz1C and DmSpz proproteins and cys-knot ligands immobilised by amine coupling at pH 4.5; Toll ectodomains injected at 0.1-7.5 μM; 100 mM NaCl, 20 mM HEPES pH 7; 30 μl/min; two-state reaction model; conditions: both partners purified
[2] = target: Aedes aegypti Spaetzle1C cystine-knot domain (residues 219-320), disulphide-linked dimer (Aedes aegypti); test: mass photometry; 25 nM Toll5A with 25 nM Spz1C; PBS pH 7.4; Refeyn OneMP
[3] = target: Aedes aegypti Spaetzle1C cystine-knot domain (residues 219-320), disulphide-linked dimer (Aedes aegypti); test: mass photometry; 50 nM Toll5A with 50 nM Spz1C; PBS pH 7.4; Refeyn OneMP
[4] = target: T2, Aedes aegypti Spaetzle1C cystine-knot …; test: SPR; heterogeneous ligand fit, site 1
[5] = target: T2, Aedes aegypti Spaetzle1C cystine-knot …; test: SPR; heterogeneous ligand fit, second site
[6] = target: Aedes aegypti Toll5A ectodomain (residues 1-789) (Aedes aegypti); test: AUC; sedimentation velocity, Toll5A ectodomain alone at ≥ 30 μM; 50,000 rpm, 20 °C; dimer to monomers
[7] = target: Aedes aegypti Spaetzle1C cystine-knot domain (residues 219-320), disulphide-linked dimer (Aedes aegypti); test: AUC; sedimentation velocity, Toll5A with Spz1C at equimolar concentration or in excess; 50,000 rpm, 20 °C
[8] = target: Aedes aegypti Spaetzle1C cystine-knot domain (residues 219-320), disulphide-linked dimer (Aedes aegypti); test: SEC-MALS; 50 μM Toll5A alone or saturated with Spz1C loaded on Superose 6; 50 mM Tris-HCl pH 7.5, 50 mM NaCl
[9] = target: Aedes aegypti Toll5A ectodomain (residues 1-789) (Aedes aegypti); test: as above
[10] = target: Aedes aegypti Spaetzle1C cystine-knot domain (residues 219-320), disulphide-linked dimer (Aedes aegypti); test: SPR; Biacore T200, CM5 chip; Spz1A, Spz1C and DmSpz proproteins and cys-knot ligands immobilised by amine coupling at pH 4.5; Toll ectodomains injected at 0.1-7.5 μM; 100 mM NaCl, 20 mM HEPES pH 7; 30 μl/min; two-state reaction model

Row | Binder | Kd [1] [nM] | stoichiometry N (Toll5A per Spz1C dimer) [2] | stoichiometry N (Toll5A per Spz1C dimer (1:1 complex)) [3] | stoichiometry N (Toll5A per Spz1C dimer (2:1 complex)) [3] | stoichiometry N (Toll5A per Spz1C dimer (2:2 complex)) [3] | koff [4] [s⁻¹] | koff [5] [s⁻¹] | stoichiometry N [6] | stoichiometry N (Toll5A per Spz1C dimer) [7] | stoichiometry N (Toll5A per Spz1C dimer) [8] | stoichiometry N [9] | Kd [10] [nM]
1 | Drosophila melanogaster Spaetzle (Spz1) (ligand, disulfide-linked dimer of the processed cys-knot form (C-106; limits from the UniProt chain feature, not given); the proprotein (26-326) was also immobilised) VGGSDERFLCRSIRKLVYPKKGLRADDTWQLIVNNDEYKQAIQIEECEGADQPCDFAANFPQSYNPICKQHYTQQTLASIKSDGELDVVQNSFKIPSCCKCALKTG | 30 to 80 | – | – | – | – | – | – | – | – | – | – | –
2 | Aedes aegypti Toll5A ectodomain (residues 1-789) (receptor, Asn-linked glycans visible at positions 151, 194, 481, 521, 634 and 687) TSTKRFTCPEESEASNCSCEEFPSKTHFYCPDFNPTLYVDVEDRMRVDFKCYDEPHDFKSLPNLAIGSVKLLTVVDCVLDDDRPILESFKFLEVADVRSFVYNNHENGIRYNAKYFEGMEQLENLTLARGVVSIDRDTFSGFLNLKRLTIEHNKLNLQPGTFEALSNLTYLGLVYNGLNEIQPGLFDGLESLEALSLSYNDIKSLSAGSFNGLSSLRMLNLRVNKIESFDANTFASLKELSRLEITLNPFVSLPRGLFSENKKLKTLILTNNRKLVTLPEELLANLKELTVVNLSHNGVGNLPESLLSGSSGIIELNLGYNRLNSLPEELLSDQPQLQVLNLDHNQLESIPDYFLERNVELQTLYLSHNRLRSLSEKAFTKLKNLKELHLENNQLQTIPQFLFSGTPKLEEIYMQNNQLALHANSFINEELSIADNDNTPFQVLQKLRILHLRNNSISTIFQDWYINNLEMQSLDLSFNKLPGLSYTQLQFQSNITLNLSNNEISQVLLIDDLDLQPYQRINVDLNHNPLNCNCNALKFIQLIQSKAEHGLQFNVDQLRCSEPPNLLDATMDQLQTKDLLCDFESADDCPKDCQCAMRLLDHTVIVNCSGRGLTEFPDLPIPSQLHEDFNALEVHVENNRLTKLPNLTKHNEITQLYARNNSIQNLLPHNIPSKLRIIDLSQNLLKMIDDSTLAQINRSSHLETIRLSQNQWLCDCPASSFLIFVQQNSRLISDMSAIRCHPSGKSLDSITVNELCFEDYTTENLYFQ | – | 2 | 1 | 2 | 1 | 0.0324 | 0.00532 | 2 | 1 and 2 | 2 | 2 | 2000
